Assay [1] has as its target V-shape-GSGS-C-ter peptide (fused V-shape and C-ter peptide of SAP05, linked by the GSGS linker) (UniProt Q2NK94). The assay is described as follows: SPR.
For assay [2], the target named is T1, aster yellows witches'-broom phytoplasma SAP05 (AYWB_SAP05), mature, 33-135 (Aster Yellows phytoplasma strain …, UniProt Q2NK94 33-135).
T1 chain: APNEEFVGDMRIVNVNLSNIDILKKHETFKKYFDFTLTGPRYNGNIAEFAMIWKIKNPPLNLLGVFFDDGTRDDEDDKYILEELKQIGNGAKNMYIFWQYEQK
Briefly: SPR. On the technique in general: In SPR one partner is held on a chip, and binding of the other changes the refractive index at the surface.

B1: GST-tagged A. thaliana Rpn10 (AtRpn10) vWA domain (domain or fragment)
chain: VLEATMICIDNSEWMRNGDYSPSRLQAQTEAVNLLCGAKTQSNPENTVGILTMAGKGVRVLTTPTSDLGKILACMHGLDVGGEINLTAAIQIAQLALKHRQNKNQRQRIIVFAGSPIKYEKKALEIVGKRLKKNSVSLDIVNFGEDDDEEKPQKLEALLTAVNNNDGSHIVHVPSGANALSDVLLSTPVFTG
In general, koff refers to a measure of how fast the partners let go of each other. Read a high koff as fast dissociation. Take B1: in assay [1], the off-rate (koff) turned out to be 0.0115 s⁻¹.

B2: GST-tagged homo sapiens Rpn10 (hRpn10) vWA (1-193aa) (domain or fragment)
chain: MVLESTMVCVDNSEYMRNGDFLPTRLQAQQDAVNIVCHSKTRSNPENNVGLITLANDCEVLTTLTPDTGRILSKLHTVQPKGKITFCTGIRVAHLALKHRQGKNHKMRIIAFVGSPVEDNEKDLVKLAKRLKKEKVNVDIINFGEEEVNTEKLTAFVNTLNGKDGTGSHLVTVPPGPSLADALISSPILAGEG
Broadly, the Kd is the free concentration of one partner at which half of the binding sites on the other are occupied at equilibrium, for simple one-to-one binding. Read a low Kd as a tighter complex. Regarding B2, in assay [2], the Kd was roughly 149 µM.

The values are drawn from paper doi:10.1101/2023.08.24.554544 (2023).
